In IntAct's records for PubMed 26258305:

B1: Protein TIFY 7 (Arabidopsis thaliana (Mouse-ear cress)), Q8W4J8 (parent)
chain: MERDFLGLSDKQYLSNNVKHEVNDDAVEERGLSTKAAREWGKSKVFATSSFMPSSDFQEAKAFPGAYQWGSVSAANVFRRCQFGGAFQNATPLLLGGSVPLPTHPSLVPRVASSGSSPQLTIFYGGTISVFNDISPDKAQAIMLCAGNGLKGETGDSKPVREAERMYGKQIHNTAATSSSSATHTDNFSRCRDTPVAATNAMSMIESFNAAPRNMIPSVPQARKASLARFLEKRKERLMSAMPYKKMLLDLSTGESSGMNYSSTSPT
partner: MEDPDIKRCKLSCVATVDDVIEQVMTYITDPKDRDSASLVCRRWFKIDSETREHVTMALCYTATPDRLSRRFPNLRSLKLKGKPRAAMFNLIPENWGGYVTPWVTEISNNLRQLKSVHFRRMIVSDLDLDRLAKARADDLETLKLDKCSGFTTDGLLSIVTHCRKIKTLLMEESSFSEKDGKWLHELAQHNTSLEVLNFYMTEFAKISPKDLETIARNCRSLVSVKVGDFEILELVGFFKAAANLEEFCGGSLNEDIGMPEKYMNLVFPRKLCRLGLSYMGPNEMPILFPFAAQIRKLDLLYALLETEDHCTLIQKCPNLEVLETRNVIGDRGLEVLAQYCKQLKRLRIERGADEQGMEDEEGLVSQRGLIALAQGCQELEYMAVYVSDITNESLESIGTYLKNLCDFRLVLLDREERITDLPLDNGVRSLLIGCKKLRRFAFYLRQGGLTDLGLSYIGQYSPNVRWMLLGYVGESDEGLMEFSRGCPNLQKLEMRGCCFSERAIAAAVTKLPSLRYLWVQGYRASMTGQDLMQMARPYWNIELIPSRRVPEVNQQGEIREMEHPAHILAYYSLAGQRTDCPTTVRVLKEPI
B2: Protein TIFY 7 (Arabidopsis thaliana (Mouse-ear cress)), Q8W4J8 (parent)
chain: B1 chain

Legend:
coi1_arath COI1, O04197 = variants of: B1; conditions: with coi1_arath COI1, O04197
myc3_arath MYC3, Q9FIP9 = variants of: B2; conditions: with myc3_arath MYC3, Q9FIP9
myc2_arath MYC2, Q39204 = variants of: B2; conditions: with myc2_arath MYC2, Q39204
myc4_arath MYC4, O49687 = variants of: B2; conditions: with myc4_arath MYC4, O49687
myc4_arath MYC4, O49687, sequence (O49687 whole entry): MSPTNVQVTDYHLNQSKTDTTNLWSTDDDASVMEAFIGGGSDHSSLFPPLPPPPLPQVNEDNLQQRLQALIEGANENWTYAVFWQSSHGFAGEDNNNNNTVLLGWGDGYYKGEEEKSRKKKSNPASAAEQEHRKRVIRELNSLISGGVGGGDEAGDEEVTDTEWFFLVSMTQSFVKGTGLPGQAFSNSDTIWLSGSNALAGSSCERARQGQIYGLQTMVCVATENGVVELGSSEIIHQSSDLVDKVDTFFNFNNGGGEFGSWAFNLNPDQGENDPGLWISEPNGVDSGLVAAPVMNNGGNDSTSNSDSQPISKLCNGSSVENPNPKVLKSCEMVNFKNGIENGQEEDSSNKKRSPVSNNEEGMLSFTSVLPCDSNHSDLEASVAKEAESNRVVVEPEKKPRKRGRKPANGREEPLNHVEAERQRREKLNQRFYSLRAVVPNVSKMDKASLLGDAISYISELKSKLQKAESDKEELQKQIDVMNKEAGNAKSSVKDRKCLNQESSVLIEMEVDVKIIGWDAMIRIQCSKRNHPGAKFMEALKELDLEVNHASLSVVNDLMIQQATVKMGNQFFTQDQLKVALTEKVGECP

myc2_arath MYC2, Q39204, sequence (Q39204 whole entry): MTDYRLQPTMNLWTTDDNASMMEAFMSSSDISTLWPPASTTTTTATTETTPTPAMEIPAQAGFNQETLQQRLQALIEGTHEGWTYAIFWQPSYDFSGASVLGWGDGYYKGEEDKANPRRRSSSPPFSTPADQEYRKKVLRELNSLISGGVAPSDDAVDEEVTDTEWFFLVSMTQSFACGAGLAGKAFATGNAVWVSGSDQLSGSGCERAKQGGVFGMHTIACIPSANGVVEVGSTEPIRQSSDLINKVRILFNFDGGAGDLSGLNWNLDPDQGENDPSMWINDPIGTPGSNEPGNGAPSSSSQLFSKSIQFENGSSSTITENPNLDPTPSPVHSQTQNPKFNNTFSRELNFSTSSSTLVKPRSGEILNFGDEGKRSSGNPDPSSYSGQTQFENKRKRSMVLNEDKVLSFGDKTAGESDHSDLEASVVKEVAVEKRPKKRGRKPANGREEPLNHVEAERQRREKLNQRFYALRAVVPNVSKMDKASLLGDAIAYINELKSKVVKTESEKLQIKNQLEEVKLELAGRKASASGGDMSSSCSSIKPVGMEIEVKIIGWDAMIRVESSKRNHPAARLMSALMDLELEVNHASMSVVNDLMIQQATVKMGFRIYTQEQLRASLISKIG
myc3_arath MYC3, Q9FIP9, sequence (Q9FIP9 whole entry): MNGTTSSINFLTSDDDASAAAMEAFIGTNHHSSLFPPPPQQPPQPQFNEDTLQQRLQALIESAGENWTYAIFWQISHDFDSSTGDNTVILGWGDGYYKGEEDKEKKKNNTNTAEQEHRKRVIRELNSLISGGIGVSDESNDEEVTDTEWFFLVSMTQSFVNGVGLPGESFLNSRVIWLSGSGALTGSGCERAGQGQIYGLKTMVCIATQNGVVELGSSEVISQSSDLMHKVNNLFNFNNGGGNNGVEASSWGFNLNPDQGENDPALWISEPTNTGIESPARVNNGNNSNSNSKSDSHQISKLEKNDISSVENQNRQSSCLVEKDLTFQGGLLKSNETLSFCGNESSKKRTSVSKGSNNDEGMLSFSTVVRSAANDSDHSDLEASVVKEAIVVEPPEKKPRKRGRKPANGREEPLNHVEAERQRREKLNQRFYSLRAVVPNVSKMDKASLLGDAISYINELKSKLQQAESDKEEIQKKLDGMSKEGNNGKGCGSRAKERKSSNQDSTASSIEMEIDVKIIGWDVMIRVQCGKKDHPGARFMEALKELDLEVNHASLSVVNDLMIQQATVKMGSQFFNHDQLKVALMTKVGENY

effect of a mutation on the interaction (coi1_arath COI1, O04197)	effect of a mutation on the interaction (myc3_arath MYC3, Q9FIP9)	effect of a mutation on the interaction (myc2_arath MYC2, Q39204)	effect of a mutation on the interaction (myc4_arath MYC4, O49687)	Variant
disrupting interaction strength				MERDFLGLSDKQYLSNNVKHEVNDDAVEERGLSTKAAREWGKSKVFATSSFMPSSDFQEAKAFPGAYQWGSVSAANVFRRCQFGGAFQNATPLLLGGSVPLPTHPSLVPRVASSGSSPQLTIFYGGTISVFNDISPDKAQAIMLCAGNGLKGETGDSKPVREAERMYGKQIHNTAATSSSSATHTDNFSRCRDTPVAATNAMSMIESFNAAPRNMIPSVPQARKASLARALEKRKERLMSAMPYKKMLLDLSTGESSGMNYSSTSPT [F230A]
decreasing interaction strength				MERDFLGLSDKQYLSNNVKHEVNDDAVEERGLSTKAAREWGKSKVFATSSFMPSSDFQEAKAFPGAYQWGSVSAANVFRRCQFGGAFQNATPLLLGGSVPLPTHPSLVPRVASSGSSPQLTIFYGGTISVFNDISPDKAQAIMLCAGNGLKGETGDSKPVREAERMYGKQIHNTAATSSSSATHTDNFSRCRDTPVAATNAMSMIESFNAAPRNMIPSVPQARKASLARFAEKRKERLMSAMPYKKMLLDLSTGESSGMNYSSTSPT [L231A]
disrupting interaction strength				MERDFLGLSDKQYLSNNVKHEVNDDAVEERGLSTKAAREWGKSKVFATSSFMPSSDFQEAKAFPGAYQWGSVSAANVFRRCQFGGAFQNATPLLLGGSVPLPTHPSLVPRVASSGSSPQLTIFYGGTISVFNDISPDKAQAIMLCAGNGLKGETGDSKPVREAERMYGKQIHNTAATSSSSATHTDNFSRCRDTPVAATNAMSMIESFNAAPRNMIPSVPQARKASLARFLEKAKERLMSAMPYKKMLLDLSTGESSGMNYSSTSPT [R234A]
disrupting interaction strength				MERDFLGLSDKQYLSNNVKHEVNDDAVEERGLSTKAAREWGKSKVFATSSFMPSSDFQEAKAFPGAYQWGSVSAANVFRRCQFGGAFQNATPLLLGGSVPLPTHPSLVPRVASSGSSPQLTIFYGGTISVFNDISPDKAQAIMLCAGNGLKGETGDSKPVREAERMYGKQIHNTAATSSSSATHTDNFSRCRDTPVAATNAMSMIESFNAAPRNMIPAAAAARKASLARFLEKRKERLMSAMPYKKMLLDLSTGESSGMNYSSTSPT [S218A;V219A;P220A;Q221A]
disrupting interaction strength				MERDFLGLSDKQYLSNNVKHEVNDDAVEERGLSTKAAREWGKSKVFATSSFMPSSDFQEAKAFPGAYQWGSVSAANVFRRCQFGGAFQNATPLLLGGSVPLPTHPSLVPRVASSGSSPQLTIFYGGTISVFNDISPDKAQAIMLCAGNGLKGETGDSKPVREAERMYGKQIHNTAATSSSSATHTDNFSRCRDTPVAATNAMSMIESFNAAPRNMIPSVPQAAAASLARFLEKRKERLMSAMPYKKMLLDLSTGESSGMNYSSTSPT [R223A;K224A]
	disrupting interaction strength	disrupting interaction strength	disrupting interaction strength	MERDFLGLSDKQYLSNNVKHEVNDDAVEERGLSTKAAREWGKSKVFATSSFMPSSDFQEAKAFPGAYQWGSVSAANVFRRCQFGGAFQNATPLLLGGSVPLPTHPSLVPRVASSGSSPQLTIFYGGTISVFNDISPDKAQAIMLCAGNGLKGETGDSKPVREAERMYGKQIHNTAATSSSSATHTDNFSRCRDTPVAATNAMSMIESFNAAPRNMIPSVPQARKASAARFLEKRKERLMSAMPYKKMLLDLSTGESSGMNYSSTSPT [L227A]
	disrupting interaction strength	decreasing interaction strength	decreasing interaction strength	MERDFLGLSDKQYLSNNVKHEVNDDAVEERGLSTKAAREWGKSKVFATSSFMPSSDFQEAKAFPGAYQWGSVSAANVFRRCQFGGAFQNATPLLLGGSVPLPTHPSLVPRVASSGSSPQLTIFYGGTISVFNDISPDKAQAIMLCAGNGLKGETGDSKPVREAERMYGKQIHNTAATSSSSATHTDNFSRCRDTPVAATNAMSMIESFNAAPRNMIPSVPQARKASLARFAEKRKERLMSAMPYKKMLLDLSTGESSGMNYSSTSPT [L231A]
	disrupting interaction strength	disrupting interaction strength	disrupting interaction strength	MERDFLGLSDKQYLSNNVKHEVNDDAVEERGLSTKAAREWGKSKVFATSSFMPSSDFQEAKAFPGAYQWGSVSAANVFRRCQFGGAFQNATPLLLGGSVPLPTHPSLVPRVASSGSSPQLTIFYGGTISVFNDISPDKAQAIMLCAGNGLKGETGDSKPVREAERMYGKQIHNTAATSSSSATHTDNFSRCRDTPVAATNAMSMIESFNAAPRNMIPSVPQARKASLARALEKRKERLMSAMPYKKMLLDLSTGESSGMNYSSTSPT [F230A]
	disrupting interaction strength	disrupting interaction strength	disrupting interaction strength	MERDFLGLSDKQYLSNNVKHEVNDDAVEERGLSTKAAREWGKSKVFATSSFMPSSDFQEAKAFPGAYQWGSVSAANVFRRCQFGGAFQNATPLLLGGSVPLPTHPSLVPRVASSGSSPQLTIFYGGTISVFNDISPDKAQAIMLCAGNGLKGETGDSKPVREAERMYGKQIHNTAATSSSSATHTDNFSRCRDTPVAATNAMSMIESFNAAPRNMIPSVPQARKASLARFLEKAKERLMSAMPYKKMLLDLSTGESSGMNYSSTSPT [R234A]
